Consider three molecules from patent publication US20240026019A1 (Innovent, published 2024).

First the molecules themselves.
T1: rh-TNFR2-His (recombinant human TNFR2, His tag) (human, UniProt P20333 23-257)
T1 construct: Soluble antigen of the ForteBio assay; not shown: His tag
T1 sequence (looked up): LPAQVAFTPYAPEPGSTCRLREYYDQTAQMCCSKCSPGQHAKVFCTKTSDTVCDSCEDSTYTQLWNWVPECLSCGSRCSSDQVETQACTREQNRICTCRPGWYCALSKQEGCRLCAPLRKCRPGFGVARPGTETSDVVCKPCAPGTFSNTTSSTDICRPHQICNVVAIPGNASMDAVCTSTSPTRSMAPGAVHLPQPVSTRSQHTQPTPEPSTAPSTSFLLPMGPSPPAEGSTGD

T2: CYNO-TNFR2-His (cynomolgus monkey TNFR2, His tag) (cynomolgus monkey, UniProt A0A2K5VET2 132-366)
T2 construct: Soluble antigen of the ForteBio assay; also called cTNFR2; not shown: His tag
T2 sequence: T1 sequence (looked up) with S16G, S36P, P117Q, N164H, E210A, S216G, M223V

T3: hTNFR2 protein (coated on the microplate in the blocking ELISA) (human, UniProt P20333 23-257)
T3 construct: The construct coated in the ELISA is not described (it may or may not be the immunogen, Sino biological 10417-H03H)
T3 sequence (looked up): T1 sequence (looked up)

B1: positive control antibody OPI (humanized antibody SBT-002e in WO 2017083525) (antibody, V domains shown)
VH: QVTLKESGPALVKPTQTLTLTCTFSGFSLSTSGMGVGWIRQPPGKALEWLAHIWWDDDKFYNPSLKSRLTISKDTSKNQVVLTMTNMDPVDTATYYCARLTGTRYFDYWGQGTTVTVSS
VL: DVQMTQSPSSLSASVGDRVTITCKASQDINKFIAWYQQKPGKAPKLLIHYTSTLQPGIPSRFSGSGSGRDYTFTISSLQPEDIATYYCLQYGNLWTFGGGTKVEIK
notes: also called Benchmark OPI
B2: chimeric antibody 3C4 (antibody, human IgG1, kappa, V domains shown)
VH: QVQLQQSGPELVKPGASVTISCKASDYSFTNYYIHWVKQRPGQGLEWIGWIYPGNVITKYHEKFKGKAILTADTSSTTAYMQLNSLTSEDSAVYFCARSRATGYFDYWGQGTTLTVSS
VL: DIQMTQTTSSLSASLGDRVTISCRASQDIRNYLNWFQQKPDGTIKLLIYYTSRLHSGVPSRFSGSGSGTDYSLTISNLEQEDMATYFCQQFNTLPWTFGGGTKLEIKR
B3: chimeric antibody 69B1 (antibody, human IgG1, kappa, V domains shown)
VH: QIQLVQSGPELKKPGETVKISCKASGYTFTDYSMNWVKQAPGKGLKWMGWLNTETGEPIYADDFKGRFVFSLETSASTAYLEINNLNDEDTATYFCAREAIYYGTSYVLDYWGQGTSVTVSS
VL: DIVLTQSPASLAVSLGQRATISCRASESVEYYGTNFMQWYQQKPGQPPKLLIYSASNVESGVPARFSGSGSGTDFSLNIHPVEEDDIAVYFCQQSRKDPSTFGEGTNLEIKR

Numbering of substitutions follows the chain as printed.

The target of one experiment is T1, rh-TNFR2-His (recombinant human TNFR2, …). The experiment can be described thus: BLI (ForteBio), antibody on sensor, 100 nM rh-TNFR2-His in solution, 1:1 model. The protocol: (§1) In the present invention, the equilibrium dissociation constant (KD) for the binding of the 3 exemplary chimeric antibodies of the present invention described above to human TNFR2 (hTNFR2), cynomolgus monkey TNFR2 (cTNFR2), murine TNFR2(mTNFR2), and human TNFR1(hTNFR1) was determined by biological optical interferometry (ForteBio). For comparison, the equilibrium dissociation constant (KD) of a positive control antibody OPI (humanized antibody SBT-002e in WO 2017083525, VH sequence of SEQ ID NO: 58, VL sequence of SEQ ID NO: 59) was determined.
(§2) The ForteBio affinity assay was performed according to the prior art (Estep, P, et al., High throughput solution based measurement of antibody-antigen affinity and epitope binning. MAbs, 2013.5(2): p. 270-278). Briefly, a sensor was equilibrated offline in an assay buffer for 30 min, and was equilibrated online for 60 s to establish a baseline. The purified antibodies obtained as described above were loaded online onto an AHQ sensor (ForteBio) for the ForteBio affinity assay. The sensor with the loaded antibodies was then exposed to each of 100 nM hTNFR2, cTNFR2, mTNFR2, and hTNFR1 antigens for 5 min before transferring the sensor to an assay buffer for 5 min of dissociation for dissociation rate measurement. The kinetic analysis was performed using a 1:1 binding model.
As for B1, the Kd turned out to be 4.18 nM, the koff worked out at 0.000229 s⁻¹ and the association rate constant (kon) was determined as 54800 M⁻¹ s⁻¹.
As for B2, the Kd was found to be 1.36 nM, the koff is 0.00176 s⁻¹ and the kon stood at 1.29e+06 M⁻¹ s⁻¹.
Turning to B3, the Kd was found to be 0.265 nM, the off-rate constant (koff) is 0.000519 s⁻¹ and the on-rate constant (kon) worked out at 1.96e+06 M⁻¹ s⁻¹.

The next experiment concerns the target T2, CYNO-TNFR2-His (cynomolgus monkey …). Description: BLI (ForteBio), antibody on sensor, 100 nM CYNO-TNFR2-His in solution, 1:1 model. As to the method:
as §1, §2
Take B1: the Kd amounted to 1.15 nM, the koff is 0.000328 s⁻¹ and the kon was 284000 M⁻¹ s⁻¹.
B2 had an equilibrium dissociation constant (Kd) of 1.42 nM, an off-rate constant (koff) of 0.00201 s⁻¹ and an association rate constant (kon) of 1.41e+06 M⁻¹ s⁻¹.
In turn, B3 came in with a Kd of 1.11 nM, a koff of 0.00198 s⁻¹ and a kon of 1.79e+06 M⁻¹ s⁻¹.

The target of the next experiment is T3, hTNFR2 protein (coated on the …). The experiment can be described thus: blocking ELISA: hTNFR2 coated on the plate, binding of biotinylated TNFα blocked by the antibody; the table row is headed EC50; unit taken from the axis log Conc nM. The protocol: The ability of the chimeric antibodies 3C4, 69B1, and 72G8 and the control antibody OPI to block the binding of human TNFα to hTNFR2 was assayed by ELISA.
The hTNFR2 protein was resuspended and dissolved to a concentration of 2 μg/mL with PBS, and a microplate was coated with the protein and incubated overnight. The plate was blocked with 5% BSA for 1 h, and a biotinylated antigen (Recombinant Biotinylated TNFα protein (ACRO)) was diluted to 2 μg/mL and added to the plate at 10 μL/well. The antibodies prepared as described above (3C4, 69B1, and 72G8) were each diluted in a gradient starting from the maximum concentration of 300 nM for a total of 8 or 12 dilution gradients. The diluted antibodies were added at 100 μL/well and incubated in PBS on ice for 30 min. The antigen-antibody mixture was incubated in a microplate for 90 min and washed three times with PBS, and the supernatant was discarded. 100 μL of Avidin-HRP (Invitrogen) diluted at a 1:5000 ratio was added to each well, incubated at room temperature for 30 min, and washed six times with PBS. A TMB chromogenic solution (solarbio) was added to the plate at 100 μL/well for color development for 1 min, and the reaction was stopped by adding a stop buffer (solarbio) at 100 μL/well. The plate was read on a microplate reader at OD₄₅₀ and OD₆₂₀.
A general note: In an ELISA, binding on a coated surface is turned into a signal by an enzyme label.
The molecule B1 came in with an IC50 of 4.56 nM.
On the same count and under the same terms, the result for B2 reads 3.11 nM.
Same read-out and setting: the result for B3 reads 2.15 nM.

Broadly, the Kd is a measure of binding affinity in units of concentration. In general, koff refers to the rate constant with which the complex falls apart. By kon is commonly meant a measure of how fast the partners come together. For orientation: IC50 means the point on the concentration scale where inhibition reaches its midpoint.
